Data as given in the DeepSol protein solubility set.

Assay: soluble on expression in E. coli; label from the status in PepcDB or PDB records

Sequence	soluble on expression in E. coli
MGSDKIHHHHHHMTQEQTRPKHMAAGETPEQHAAFEARIARGEKIEPGDWMPAEYRRQLIRMISQHAHSEVVGMLPEGEWIARAPSLKRKTILMAKVQDEAGHGQYLYHAAETLGVTREEMLDALLTRKAKYSSIFNYPTLTWADVGMIGWLVDGAAIKNQTMLAGCSYGPYSRAMVRICSEETFHHKQGKEMMVLYAQGTPEQRQMAQDALNRWWWPAVQMLGPHDSDSPNTGALSKWGIKLKTNDEVRQEFINEHVPELLEAGLTIPDPDLHQDEAGNWVHGPIDWSEFWAVIKGEQGLGNERLATRQAAQDEGAWVREALEAYMARQAKGEAAD	not soluble
MGRVDGLDKFKGLFDALEPKSEGQRELKEALLSDVDLVGVFGPTGTGKSLFSIVYGVSMTAEGRFRRVVLARPVIDVVTGRELTVMTDAQSYRRLAAEYLMDILSGFLGEERVREILSSDSLVLVDPHFLRGRTFDNSVIIVDDSQSMPPEAIVEIITRLGTGSKLIVIGDPVFQRTSEPGLDGASMAREILSNEPTAEVVDLGLKDIVRPGAKRGVKMLMELLMRRRTLNQAEKEVIEAARMHSPDADIITAVDLQDAKRKWGIESDHVPDVLVVVKEGHLGRFIGRGGERIEKIEGETGLRIRAIEHTLDLKEIVRAIHPVSWIHKHVIDFDFAGPQLKIKVSKEHMGPMLGQKGAHIRFLDEIVRKLLGVGVFVEEVEERRGRRRRR	not soluble
MSLKQKLIKKAQELRQHGFTTGEIADELNVSMDTARWLTLQKPAEEKPEAPVDFFINWKSLGGNSTRLRYVSGALSDMALSHGEAEVILGIAVSGIPFATMMADFLEDMSGVETSLAVYHPHKHRKEKDDGEGAISTNFGSVEGKKVVIVDDVITSGKTVKEVIHAVKDHGGEPIAVTVLIDKSGLSEIEEVPIESLIKVGRLEGHHHHHH	soluble
HLQTKTAAKTGEGLSESAIHRTFQQLASGFDTIYGGFGQAPKFPMPHMLMYLLRYDHNTGQENALYNVTKTLDSMANGGIYDHIGYGFARYSTDDEWLVPHFEKMLYDNALLLTAYTEAYQVTQNSRYKEICEQIITFIQREMTHEDGSFFSALDADTEGEEGKYYVWSKEEILKTLGDDLGTLYCQVYDITEEGNFEGKNIPNLIHTKREQIKEDAGLTEKELSLKLEDARQQLLKTREERTYPHVDDKVLTSWNALMIAGLAKAAKVYQEPKYLSLAKDAITFIENKLIIDGRVMVRYRDGEVKNKGFIDDYAFLLWAYLDLYEASFDLSYLQKAKKLTDDMISLFWDEEHGGFYFTGHDAEALIVREKEV	not soluble
MRILADENIPVVDAFFADQGSIRRLPGRAIDRAALAEVDVLLVRSVTEVSRAALAGSPVRFVGTCTIGTDHLDLDYFAEAGIAWSSAPGCNARGVVDYVLGCLLAMAEVRGADLAERTYGVVGAGQVGGRLVEVLRGLGWKVLVCDPPRQAREPDGEFVSLERLLAEADVISLHTPLNRDGEHPTRHLLDEPRLAALRPGTWLVNASRGAVVDNQALRRLLEGGADLEVALDVWEGEPQADPELAARCLIATPHIAGYSLEGKLRGTAQIYQAYCAWRGIAERVSLQDVLPETWLAGLQLNPGCDPAWALATLCRAVYDPRSDDAAFRRSLTGDSATRRAAFDALRKHYPPRREITGLRVATGGQAELQRVVRALGAQLV	soluble
MGSDKIHHHHHHMLANGDVPILQLQHIIKRFGNQVAVNDVSLNIHRGEIVALLGENGAGKSTLIKILAGLYSRDEGEIYFHQQKIQSAQSLTNKNKQPIAFIHQDLGLVEWMTIAENMAFVMGFPRRFGLIDWKKINQQAQEALDFVGIHLSAQTRVFDLSRTEKALLTIARAIAVNAEILVLDEPTASLPASDVEHLFKVLNRLRKQGVGMIYVTHRLDEVIRLSDRILVMRDGYSVAEGSTKDYDVKALVKAIVGEETREKQREPLPKNTPEVVRLNEVVVGDTGPVSFSLHQGEMIALAGLRGAGQEEIGRLLFGLRKLESGDISLNECAYHAESPCEAIYKGVALVAGDRIREGLVMSMTTMENLFINPILSGHFPLKNYASKKERSECWYQFQLFDIRPKNLFIEVSSLSGGNQQKIVLARWMQLNTPVLILEDPTAGVDVGARAEIYDLLNQALKKGVAIIVISNDFEEIAHLCNRALVFNRGDIVGELFNEQVTFANLLALASDASATIN	not soluble
MGSDKIHHHHHHMGISNIKQLYSKWKSLQPLKPEDLKRWNDKFKLEFNYNSNHLEGNTLTYGQTKLLLMFGETSGNASLKDYEEMKAHNVGLEMIKQEAQDKERPLTESFIRELNRTILVQDYWKNAKTPDGQDIRMQIKVGEYKSRPNSVLTATGEVFSYASPEETPAFMTSLVDWYNLEADKGILTPVELAALLHYRYIRIHPFEDGNGRIARLLVNFVLHRYGYPMIVIHSEDKSNYLNILHQCDVEAGLTPSDGANATLNDILPFVNYLSSCLIRSLTLAIKAAKGESIEEEGDFDKKIAMLQRRYSDKAIEKSSRSVEQARSAFFELAVYVEQKISGLQKLFDRTFITNTPTWNMARKINTPNPDEPIIQSHILYTKSKEYSFVEDIIRLSKKSQVDYFKLKYDAVTFHFNHCRYAGDNTFDFPFCIYIQYLSDGCEISCDITSDSVKLSYNPDVLAEEGKEYMDTACNELLKLLEEKMNDKSPEN	not soluble
MGRYKDETPAVRVYTVCDESRYMIVRNVPALGCGDDLMRLFMTYGEVEEFAKRKLDESSFLGNRLQISYAPEYENVNDTKDKLESRRKEVLARLNPQKEKSTSQVTKLAGPALTQTDNVSSQRREMEYQFHRGNAPVTRVSSDQEYFASSSMNQTVKTVREKLNKTREENISSLSHCKQIEESGNQKRLQPSSQTQPEESGNQKRLQPSSQIQPDLKRTRVDNRRRI	not soluble
KKLDLLITGVGGQGAILASDIIGKAAVISGIPIRAAETHGMAQRGGSVVNHIRLGSDLGSMIPKKGADIMLALEPMEAVRYLDFLKDGGVIIVNTQSIIPVTVTSGLSKYPEVQEILDALSEKYVVKAFNADELAHEAGSRLAMNVAMVGAVSGYLPISKEVLLESVKVLVPKKTIEINIRAFEMGREEVEE	not soluble
MHMSEANHKNIVVVGAGIIGTSVATMLSKVSPNWHIDMFERLEGAGIESSNENNNAGTGHAALCELNYTVEQDDGSIDASKAQEINEQFELSRQFWGNLVKNGDISNPEEFIQPLPHISFVMGPTNVNFLRKRYETLKTLPMFDTIEYTEDMETMRKWMPLMMENREPGHQMAASKIDEGTDVNYGALTRKLAHYLEQKSNVSLKYNHDVVDLTQREDGKWEVVVENRETKEKVTKIADKVFIGAGGHSIPLLQKSGVKQREHLGGFPISGQFLRCTNPDIIKQHAAKVYSKEPQGKPPMTVPHLDTRYINGKQTLLFGPYANIGPKFLKFGSNLDLFESIKPYNITTMLASAVKNVPLIKYSIDQMIKTKEGCMNYLRTFIPDAKDEDWELYTAGKRVQVIKDSEQHGKGFVVFGTEVVNSDDNSMIALLGESPGASTSLSVVLEVLEKNFADDKEAWEPVVKEMVPTYGRSLINDEKLMRETRRETSKNLHLNRMAGDPLEHHHHHH	soluble
MASGAKKLRNVNEVLSAKKPVSILLMGTDTGALGRTFAGRTDSMMVVTINPKTNKTTITSIPRDTAVNIPGYTSYGVSKINAAYAYGKSKTAITTVQKMLNIPIDFYAIINMGGMEKIIDEVGGVTLKPTLSFSYGGYTFKKGVKTHMNGKKALAYSRMRDDDPLGDYGRQTRQRKVIMALLNKSNSISSLLNEDFISSLSKQTQTDLTFNDLTALATNYRKATQYIKTTHLQGTSETIESQSMEVASKSELQRVTNYIRKALGLSHKTTGTIAQLEHHHHHH	soluble
MAVAPTAREENVYMAKLAEQAERYEEMVEFMEKVSNSLGSEELTVEERNLLSVAYKNVIGARRASWRIISSIEQKEESRGNEEHVNSIREYRSKIENELSKICDGILKLLDAKLIPSAASGDSKVFYLKMKGDYHRYLAEFKTGAERKEAAESTLTAYKAAQDIATTELAPTHPIRLGLALNFSVFYYEILNSPDRACNLAKQAFDEAIAELDTLGEESYKDSTLIMQLLRDNLTLWTSDMQDDGADEIKEDPKPDEAKN	soluble
MDDKKDNRHLSKPAYREECTGDTERSTTAYMDILEDVSTGSTSKLPLEAKFVKISNNISEKENLPKEKEIGGVKGLEPTRYGDWQHKGKVTDF	soluble
MSVGYDRLKTSSLAELRAAIRSGAYRSHTAGLGQGYLQANLAILPEAYALDFMRYCQRNPKPCPLIGVSDTGNPMMFTLGRDIDIRTDVPAYNVYRDGRLDSVSADITEDWRDDLVVFALGCSFTFEHAVMRAGVALWHVDNDRTVPMFRSNIETVPAGPFSGKMVVSMRAVPEDRVAEVAEISRAYPLAHGAPVYWGDPAGLGIADIMSPDWGDPAPLGPGEVPMFWACGVTPQVAIEAARLPLCITHKPGHMLITDVAEDAEVPVVETAQDKRLEHHHHHH	soluble
MSDNSTGTTKSRSNVDDVQAHYDLSDAFFALFQDPTRTYSCAYFERDDMTLHEAQVAKLDLTLGKLGLEPGMTLLDVGCGWGSVMKRAVERYDVNVVGLTLSKNQHAYCQQVLDKVDTNRSHRVLLSDWANFSEPVDRIVTIEAIEHFGFERYDDFFKFAYNAMPADGVMLLHSITGLHVKQVIERGIPLTMEMAKFIRFIVTDIFPGGRLPTIETIEEHVTKAGFTITDIQSLQPHFARTLDLWAEALQAHKDEAIEIQSAEVYERYMKYLTGCAKAFRMGYIDCNQFTLAK	soluble
MSLIMSEPPQLTTPDDKDVENRKHSSTYSISNLLLEKKESSPSGSSSEDDSASSNDDDQRSPSATSSFIFPPASSSSSSESATSPTQIMAQLMANGGAVDPGLQAYFFLLQSQLNSQSMMNRVTQENVSRALTSFNLLNNLPGALPSLSPMGRLQHSMQLSPNSLNMQKKQSRPTFTGHQIYQLERKFEQTKYLAGADRAQLAQELNMSESQVKVWFQNRRTKWRKKEAADNALVKRGASGDKSPCSLSPFLSAGI	not soluble
MLDLIQTRRDLHQIPEIGLEEFKTQAYLLDVIEKLTTGKDFVQIRTWRTGILVYLQGSQPERTIGWRTDIDGLPIVEQTGLPFASQHQGRMHACVHDFHMTIALGCLERALEEQPKNNLLFLFQPAEENEAGGMLMYEDGAFGDWLPDQFYGLHVRPDLKVGQIATNTHTLFAGTCEVKIRFKGKGGHAAFPHEANDALVAASYFVTQVQSVVSRNVNPIEGAVVTFGVFQAGTTNNVITDTAFLHGTIRALTQDMSLLVQKRVKTVAEGVAAAFDMEVEVELKQGGYLPVENNPALARELMDFFDEKDGIELIDIEPAMTGEDFGYLLSKVDGVMFWLGIDSPYALHHPQMSPKEEVLAIGVAAVSSFLKKKAAE	soluble
MAHHHHHHMCNGKFAFLFSDFGNHVIEESYYKVNEGQRKGETGANKAAMQIQYCKLSHFLKVPFENFDKKTNKIIYPMFALILFEQNKQLNKNDKSIDEQEFHTFCDQFSLSKWKESLVEISKTYRVGFSPTCSIMGGVTSQEIRKFVSKQHESIPNFCVFDMNQNVVCTSMIS	not soluble
MASKPGERKTQILHTLAEMLEQPHAARITTSALAARMQVSEAALYRHFASKAQMFEGLIEFIETSIFTVVNQIAVSEPYGMGQARKTVAMLLAFAERNRGITRVLTGDALVTEDNRLQERINHINDRIEASLKQCLRVAVSDGALPADANIAAHASLLTHLVLGRWLRYAQSGWRVAPTTHLEEHLRLALG	not soluble
MGSSHHHHHHSSGLVPRGSHMKRSSPVILVSEDEYGKFDESTNSILVKGKMHHLGISRVIEPGDELIVSGKSFIVSDFSPMYFGRVIRRNTQIISEIDASYIIMRCGLRPGMDILEVGVGSGNMSSYILYALNGKGTLTVVERDEDNLKKAMDNLSEFYDIGNVRTSRSDIADFISDQMYDAVIADIPDPWNHVQKIASMMKPGSVATFYLPNFDQSEKTVLSLSASGMHHLETVELMKRRILVREGATRPASDDLTHTAFITFAIKKSGMVYRI	soluble
ELQVIQPEKSVSVAAGESATLRCAMTSLIPVGPIMWFRGAGAGRELIYNQKEGHFPRVTTVSELTKRNNLDFSISISNITPADAGTYYCVKFRKGSPDDVEFKSGAGTELSVRAKPSAPVVSG	soluble
